Assay [1] has as its target T1, human p53 wild-type full length protein (human, UniProt P04637 1-393).
T1 construct: Full length recombinant protein in ELISA; expressed in transfected H1299 cells or endogenous in MCF7/A549 cells and tumour samples in blots, IP, IF and IHC; also called wildtype p53; WT HP53
The assay can be described thus: ELISA on coated full-length protein.

For assay [2], the target named is T2, mouse p53 wild-type full length protein (mouse, UniProt P02340 1-390).
T2 construct: mature; Full length protein in ELISA; also called wildtype mouse p53; p53 of wild-type MEFs
The assay can be described thus: ELISA on coated full-length protein. (In an ELISA, binding on a coated surface is turned into a signal by an enzyme label.)

A further assay has as its target T3, SRPADHWPRHNE
T3 construct: also called line 2 under 4H2
T3 peptide: SRPADHWPRHNE
The assay can be described thus: phage display, random 12-mers on M13 pIII, panning on the antibody.

In a further assay the target is T4, SSRPMAHWPIKV
T4 construct: also called line 3 under 4H2
T4 peptide: SSRPMAHWPIKV
The assay is described as above.

The target in a further assay is T5, SNTPHWPGRPGI
T5 construct: also called line 5 under 4H2
T5 peptide: SNTPHWPGRPGI
The description is as above.

A further assay has as its target T6, ELWQNVRPFLWV
T6 construct: also called line 1 under 4H2
T6 peptide: ELWQNVRPFLWV
Described as above.

The target of the next assay is T7, SEQ ID NO 104.
T7 peptide: ELWQNVRPFLWV
In words: phage display: peptide captured by the antibody from an M13 random 12-mer library (FIG. 7B = clone 4H2 by paragraph 523).

A further assay has as its target T8, SEQ ID NO 105.
T8 peptide: SRPADHWPRHNE
The description is as above.

For a further assay, the target named is T9, SEQ ID NO 106.
T9 peptide: SSRPMAHWPIKV
The assay is described as above.

The target of the next assay is T10, SEQ ID NO 108.
T10 peptide: SNTPHWPGRPGI
The assay is described as above.

The next assay concerns the target T11, SEQ ID NO 109.
T11 peptide: INTPRDWAYGGL
Described as above.

In the next assay the target is T12, SEQ ID NO 136.
T12 peptide: SSTHYSWSLMDA
In words: phage display: peptide captured by the antibody (FIG. 8B taken as clone 3G11 by paragraph 561).

The target of the next assay is T13, SEQ ID NO 137.
T13 peptide: GPSCHYCFTGLP
Described as above.

The target of a further assay is T14, SEQ ID NO 138.
T14 peptide: WSVPPGRHIHYS
Described as above.

In another assay the target is T15, SEQ ID NO 139.
T15 peptide: FSVPSGHYIRAN
The description is as above.

The next assay has as its target T16, SEQ ID NO 140.
T16 peptide: FSVRPFHYAQDN
Described as above.

Another assay has as its target T17, SEQ ID NO 141.
T17 peptide: FSVPFDRIQETP
The assay is described as above.

In the next assay the target is T18, SEQ ID NO 142.
T18 peptide: FSVRPYDPQIEN
The assay is described as above.

For another assay, the target named is T19, SSTHYSWSLMDA
T19 construct: also called line 1 under 3G11
T19 peptide: SSTHYSWSLMDA
The assay can be described thus: phage display, random 12-mers on M13 pIII, panning on the antibody.

A further assay deals with T20, GPSCHYCFTGLP
T20 construct: also called lines 2 and 3 under 3G11
T20 peptide: GPSCHYCFTGLP
The description is as above.

Another assay addresses T21, WSVPPGRHIHYS
T21 construct: also called lines 4 and 5 under 3G11
T21 peptide: WSVPPGRHIHYS
The description is as above.

The next assay deals with T22, FSVPSGHYIRAN
T22 construct: also called line 10 under 3G11
T22 peptide: FSVPSGHYIRAN
Described as above.

For a further assay, the target named is T23, FSVRPFHYAQDN
T23 construct: also called line 8 under 3G11
T23 peptide: FSVRPFHYAQDN
Described as above.

A further assay concerns the target T24, FSVPFDRIQETP
T24 construct: also called line 7 under 3G11
T24 peptide: FSVPFDRIQETP
The assay is described as above.

A further assay deals with T25, FSVRPYDPQIEN
T25 construct: also called line 9 under 3G11
T25 peptide: FSVRPYDPQIEN
Described as above.

A further assay deals with T26, GKTYSYHMQLYT
T26 construct: also called line 4 under 13E4
T26 peptide: GKTYSYHMQLYT
Described as above.

The target of a further assay is T27, YHVGGILGRLFM
T27 construct: also called line 3 under 13E4
T27 peptide: YHVGGILGRLFM
Described as above.

A further assay addresses T28, YNTFPYHLGYTL
T28 construct: also called line 5 under 13E4
T28 peptide: YNTFPYHLGYTL
The description is as above.

For a further assay, the target named is T29, DNASSSKVHHGH
T29 construct: also called line 2 under 13E4
T29 peptide: DNASSSKVHHGH
The description is as above.

Another assay addresses T30, TFVHGNTWTIVN
T30 construct: also called line 1 under 13E4
T30 peptide: TFVHGNTWTIVN
The description is as above.

Another assay concerns the target T31, 267 RNSFEVHVCACPG 279 (not fully specified; cysteine pairing not given here).
T31 construct: also called unsubstituted 13-mer of the alanine scan on R273H
T31 peptide: Biotin-RNSFEVHVCACPG
In words: ELISA on biotinylated 13-mer on streptavidin plate, antibody 1 ug/ml, O.D. 650 nm.

The target in a further assay is T32, SEQ ID NO 113.
T32 peptide: GKTYSYHMQLYT
The assay can be described thus: phage display: peptide captured by the antibody from an M13 random 12-mer library (FIG. 7C = clone 13E4 by paragraph 523).

The next assay deals with T33, SEQ ID NO 114.
T33 peptide: YHVGGILGRLFM
Described as above.

A further assay concerns the target T34, SEQ ID NO 115.
T34 peptide: YNTFPYHLGYTL
The description is as above.

The next assay has as its target T35, SEQ ID NO 116.
T35 peptide: DNASSSKVHHGH
The description is as above.

A further assay addresses T36, SEQ ID NO 117.
T36 peptide: TFVHGNTWTIVN
Described as above.

Ends that are not written are not given here. * marks the point of attachment. Biotin = O=C1N[C@H]2[C@H](CS[C@H]2CCCCC(=O)*)N1

B1: anti-R248Q p53 antibody clone 4H2 (antibody, V domains shown)
VH: QVQLKQSGPELVKPGASVKMSCKASGYTFTDYYLKWVRQSHGKSLEWIGDIDPKNGGTNYNQKFKGKATLTVDKSSSTAYMQLNSLTSEDSAVYYCAKQGGFDDYWGQGTTLTVSS
VL: not shown
notes: Mouse monoclonal antibody from hybridoma
Regarding B1, the binding result is “no binding (tested: neat supernatant)” in [1]; “no binding (tested: neat supernatant)” in assay [2]; “binds” with SRPADHWPRHNE; “binds” in the assay with SSRPMAHWPIKV; “binds” with SNTPHWPGRPGI; “binds” in the assay with ELWQNVRPFLWV. The binding result with SEQ ID NO 104, with SEQ ID NO 105, with SEQ ID NO 106, in the assay with SEQ ID NO 108 and with SEQ ID NO 109 was “binds” each time.

B2: mouse human chimeric anti-R248Q p53 antibody clone MH 4H2 (antibody, V domains shown)
VH: B1 VH
VL: not shown
notes: also called chimeric 4H2
Turning to B2, in assay [2], the binding result is recorded as “no binding (tested: 1 ng/µl)”.

B3: anti-R248Q p53 antibody clone 3G11 (antibody, V domains shown)
VH: DVQLQQSGPELVKPGASVKMSCKASGYTFTDYYVKWVKQSPGQSLEWIGDIHPKNGGTNYNQKFKGKAALTVDKSSSTAYMQLNSLTSEDSAVYFCAKMGGYDDYWGQGTTLTVSS
VL: not shown
As to B3, the binding result is recorded as “no binding (tested: neat supernatant)” in assay [2]; “binds” in the assay with SEQ ID NO 136; “binds” with SEQ ID NO 137; “binds” in the assay with SEQ ID NO 138; “binds” with SEQ ID NO 139; “binds” with SEQ ID NO 140. The binding result with SEQ ID NO 141, in the assay with SEQ ID NO 142, with SSTHYSWSLMDA, with GPSCHYCFTGLP, in the assay with WSVPPGRHIHYS and with FSVPSGHYIRAN was “binds” in each case. For the same molecule, the binding result in the assay with FSVRPFHYAQDN, in the assay with FSVPFDRIQETP and with FSVRPYDPQIEN was “binds” in each case.

B4: mouse human chimeric anti-R248Q p53 antibody clone MH 3G11 (antibody, V domains shown)
VH: B3 VH
VL: not shown
notes: also called chimeric 3G11
As for B4, the binding result in [2] is on record as “no binding (tested: 1 ng/µl)”.

B5: anti-R273H p53 antibody clone 13E4 (antibody, V domains shown)
VH: EVQLLETGGDLVTPGGSLKLSCAASGFSFSDYYMYWVRQTPEKRLEWVATISVGGTYTFYSDNVKGRFVISRDNARKNLHLEMNSLKSEDAAMYYCVRDGNDGKFLGYWGQGTFVTVTV
VL: DIVMTQSPLSLPVNLGDQVSLSCRSSQSIVHNNGDTYLEWYLQKPGQSPKLLIYKVSNRFSGVPDRFSGSGSGTDFTLKISRVEAEDLGIYYCFQGSHLPLTFGSGTKLELK
notes: Mouse monoclonal antibody from hybridoma; also called 13E4 mAb
Consider B5, for which the binding result with GKTYSYHMQLYT, in the assay with YHVGGILGRLFM, with YNTFPYHLGYTL, with DNASSSKVHHGH, with TFVHGNTWTIVN and with 267 RNSFEVHVCACPG 279 was “binds” throughout. Besides, the binding result with SEQ ID NO 113, with SEQ ID NO 114, with SEQ ID NO 115, in the assay with SEQ ID NO 116 and with SEQ ID NO 117 was “binds” in each case.

These data come from patent US20250263475A1 (AGENCY FOR SCIENCE TECHNOLOGY AND RESEARCH, published 2025).
